Results taken from patent US20250043019A1 (Janssen / Centocor, published 2025).

Columns and labels:
[1] = biological target: T1, human CD79b on the cell surface (human, UniProt P40259 29-229); assay: cell-based or functional assay
T1 sequence: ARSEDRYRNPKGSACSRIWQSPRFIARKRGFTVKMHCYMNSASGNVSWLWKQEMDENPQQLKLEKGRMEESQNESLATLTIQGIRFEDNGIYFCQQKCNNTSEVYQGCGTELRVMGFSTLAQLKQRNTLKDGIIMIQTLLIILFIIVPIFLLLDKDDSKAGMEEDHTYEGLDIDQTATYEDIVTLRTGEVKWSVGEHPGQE

[2] = biological target: T1, human CD79b on the cell surface; assay: cell-based or functional assay; remark: listed apart in the source
[3] = biological target: T1, human CD79b on the cell surface; assay: cell-based or functional assay; remark: listed apart in the source
[4] = biological target: T1, human CD79b on the cell surface; assay: cell-based or functional assay; remark: listed apart in the source
[5] = biological target: T1, human CD79b on the cell surface; assay: flow cytometry, HBL-1 cells, 1 h 37 C
Method: (§1) All cells were washed with BD stain buffer (BD Biosciences; Cat #554657), centrifuged at 1200 RPM for 3 minutes, with supernatant discarded. Cells were then stained for 20 minutes at 4° C. with BD stain buffer containing AlexaFluor 647 labeled anti-human IgG secondary antibody (Jackson Immuno; Cat #109-606-098) at a 1:200 dilution along with Aqua Fixable Live/Dead stain (Invitrogen; Cat #L34957) at a 1:400 dilution. All cells were washed with BD stain buffer (BD Biosciences; Cat #554657), centrifuged at 1200 RPM for 3 mins, with supernatant discarded. Cells were analyzed using Intellicyt (Sartorius) flow cytometer and mean fluorescent intensity (MFI) was generated using Forcyt software (Sartorius). MFI was graphed and EC50 values generated using GraphPad PRISM v.8. Dose response curves were generated by transforming the x axis values using the formula […]. Data was then graphed using non-linear regression curve fit analysis “log(agonist) vs. response-variable slope (four parameter)”.

[6] = biological target: T1, human CD79b on the cell surface; assay: flow cytometry, Carnaval cells, 1 h 37 C
Method: as §1

[7] = biological target: T2, cynomolgus monkey CD79b antigen (cynomolgus monkey); assay: SPR Biacore 8k, cyno CD79b injected up to 3000 nM
T2 construct: also called cyno CD79b; CD9W1.001
Method: (§2) General Protocol for SPR Affinity Assessment: Affinity assessment of the bispecific trispecific constructs against human CD79b were measure using recombinantly expressed extracellular domain of CD79b short and long isoforms (CD9W7.001 and CD9W8.001, respectively) by Surface Plasmon Resonance (SPR) using a Biacore 8k SPR system (Biacore) at 25° C. in HBSP+ buffer. Cross-reactivity of the same antibody panel was also assessed against cyno and mouse antigens (CD9W1.001 and CD9W105.001, respectively). Briefly, a C1 sensor chip was immobilized with anti-human Fc (target immobilization levels of >400 RU) using vendor recommended amino coupling protocol. […] The association and dissociation phases were measured for 2 or 3 minutes and 30 minutes, respectively.
(§3) The raw binding sensorgrams were processed using Biacore Insight software (Biacore) by double-referencing and the processed sensorgrams were analyzed for cross-reactivity and fitted to a 1:1 Langmuir model to obtain on-rates, off-rates and affinities.

[8] = biological target: T3, recombinant extracellular domain of human CD79b, short isoform (human, UniProt P40259 29-159); assay: SPR Biacore 8k, antibody captured by anti-Fc, 25 C
T3 chain: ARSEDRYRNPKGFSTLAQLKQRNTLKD
Method: as §2, §3

[9] = biological target: T4, recombinant extracellular domain of human CD79b, long isoform (human, UniProt P40259 29-159); assay: SPR Biacore 8k, antibody captured by anti-Fc, 25 C
T4 construct: also called hu CD79b long
T4 sequence: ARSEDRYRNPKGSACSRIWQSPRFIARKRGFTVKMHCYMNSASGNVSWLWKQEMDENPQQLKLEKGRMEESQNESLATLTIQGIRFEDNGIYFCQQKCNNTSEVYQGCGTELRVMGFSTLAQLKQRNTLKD
Method: as §2, §3

[10] = biological target: T1, human CD79b on the cell surface; assay: flow cytometry, HBL-1 cells, 1 h 37 C; control row of Table 10, same value as Table 8
Method: as §1

[11] = biological target: T1, human CD79b on the cell surface; assay: flow cytometry, Carnaval cells, 1 h 37 C; control row of Table 10, same value as Table 8
Method: as §1

[12] = biological target: T5, human CD79b and CD20 co-expressed on the surface of B-lymphoma cell lines or primary B cells (human, UniProt P11836 1-297); assay: cell-based or functional assay
T5 sequence 1: T1 sequence
T5 sequence 2: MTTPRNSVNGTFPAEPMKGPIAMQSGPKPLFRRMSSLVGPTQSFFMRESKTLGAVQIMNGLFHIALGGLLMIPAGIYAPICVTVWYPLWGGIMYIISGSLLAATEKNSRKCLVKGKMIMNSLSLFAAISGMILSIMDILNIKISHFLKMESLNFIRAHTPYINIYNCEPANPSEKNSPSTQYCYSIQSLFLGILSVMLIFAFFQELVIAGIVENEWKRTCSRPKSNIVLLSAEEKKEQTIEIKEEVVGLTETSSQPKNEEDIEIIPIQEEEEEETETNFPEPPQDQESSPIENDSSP

[13] = biological target: T5, human CD79b and CD20 co-expressed on …; assay: cell-based or functional assay; remark: listed apart in the source
[14] = biological target: T5, human CD79b and CD20 co-expressed on …; assay: cell-based or functional assay; remark: listed apart in the source
[15] = biological target: T5, human CD79b and CD20 co-expressed on …; assay: cell-based or functional assay; remark: listed apart in the source
[16] = biological target: T5, human CD79b and CD20 co-expressed on …; assay: cell-based or functional assay; remark: listed apart in the source
[17] = biological target: T5, human CD79b and CD20 co-expressed on …; assay: flow cytometry, HBL-1 cells (CD79b+ CD20+), 1 h 37 C
Method: as §1

[18] = biological target: T5, human CD79b and CD20 co-expressed on …; assay: flow cytometry, Carnaval cells (CD79b+ CD20+), 1 h 37 C
Method: as §1

[19] = biological target: T5, human CD79b and CD20 co-expressed on …; assay: flow cytometry, OCI-LY10 cells (CD79b+ CD20+), 1 h 37 C
Method: as §1

B1: 79C3B651 CD79bxCD3 bispecific antibody (bispecific antibody, human IgG1, kappa, L234A L235A)
heavy: QVQLQESGPGLVKPSQTLSLTCTVSGVSISNYYWSWIRQPPGKGLEWIGRISPSGRTNYNPSLKSRVTMSLDASKNQFSLKLSSVTAADTAVYYCARGEYSGTYSYSFDIWGQGTMVTVSSASTKGPSVFPLAPSSKSTSGGTAALGCLVKDYFPEPVTVSWNSGALTSGVHTFPAVLQSSGLYSLSSVVTVPSSSLGTQTYICNVNHKPSNTKVDKKVEPKSCDKTHTCPPCPAPEAAGGPSVFLFPPKPKDTLMISRTPEVTCVVVSVSHEDPEVKFNWYVDGVEVHNAKTKPREEQYNSTYRVVSVLTVLHQDWLNGKEYKCKVSNKALPAPIEKTISKAKGQPREPQVYTLPPSREEMTKNQVSLSCAVKGFYPSDIAVEWESNGQPENNYKTTPPVLDSDGSFFLVSKLTVDKSRWQQGNVFSCSVMHEALHNRFTQKSLSLSPGK
light: DIQMTQSPSSLSASVGDRVTITCRSSQSLFDSDDGNTYLDWFQQKPGQSPKLLIQTLSYRASGVPSRFSGSGSGTDFTLTISSLQPEDFATYYCMQRMEFPLTFGGGTKVEIKRTVAAPSVFIFPPSDEQLKSGTASVVCLLNNFYPREAKVQWKVDNALQSGNSQESVTEQDSKDSTYSLSSTLTLSKADYEKHKVYACEVTHQGLSSPVTKSFNRGEC
chain: EIVLTQSPATLSASPGERVTLSCSASSSVSYMNWYQQKPGQAPRRWIYDSSKLASGVPARFSGSGSGRDYTLTISSLEPEDFAVYYCQQWSRNPPTFGGGTKVEIKGGSEGKSSGSGSESKSTGGSQVQLVQSGAEVKKPGSSVKVSCKASGYTFTRSTMHWVKQAPGQGLEWIGYINPSSAYTNYNQKFQGRVTLTADKSTSTAYMELSSLRSEDTAVYYCASPQVHYDYAGFPYWGQGTLVTVSSEPKSSDKTHTCPPCPAPEAAGGPSVFLFPPKPKDTLMISRTPEVTCVVVSVSHEDPEVKFNWYVDGVEVHNAKTKPREEQYNSTYRVVSVLTVLHQDWLNGKEYKCKVSNKALPAPIEKTISKAKGQPREPQVYTLPPSREEMTKNQVSLWCLVKGFYPSDIAVEWESNGQPENNYKTTPPVLDSDGSFFLYSKLTVDKSRWQQGNVFSCSVMHEALHNHYTQKSLSLSPGK
notes: IgG1 bispecific; CD79b Fab arm plus CD3 scFv-Fc arm; also called 79C3B651 bsAb; CD9B643 x CD3B2030-N106A
- IC50, T-cell killing of HBL-1 (Incucyte) [1]: 0.0325 nM
- IC50, T-cell killing of OCI-Ly10 (Incucyte) [2]: 4.7 nM
- IC50, CARNAVAL killing, 72 h (FACS) [3]: 0.25 nM
- IC50, HBL-1 killing, 72 h (FACS) [3]: 2.2 nM
- IC50, OCI-LY10 killing, 72 h (FACS) [3]: > 100 nM
- Cmax (maximum cytotoxicity), donor 1 [4]: 5%
- Cmax (maximum cytotoxicity), donor 2 [4]: 13%
- Cmax (maximum cytotoxicity), donor 3 [4]: 34%
- EC50, autologous B-cell depletion, donor 3 [4]: 17 nM
- EC50 [5]: 15 nM
- EC50 [6]: 12 nM
- Kd [7]: > 3000 nM
- Kd [8]: 0.35 nM
- Kd [9]: 0.052 nM
- EC50 [10]: 15 nM
- EC50 [11]: 12 nM

B2: C923B99 CD79bxCD20xCD3 trispecific antibody (other)
heavy: B1 heavy
light: B1 light
chain: EIVLTQSPATLSASPGERVTLSCSASSSVSYMNWYQQKPGQAPRRWIYDSSKLASGVPARFSGSGSGRDYTLTISSLEPEDFAVYYCQQWSRNPPTFGGGTKVEIKGGSEGKSSGSGSESKSTGGSQVQLVQSGAEVKKPGSSVKVSCKASGYTFTRSTMHWVKQAPGQGLEWIGYINPSSAYTNYNQKFQGRVTLTADKSTSTAYMELSSLRSEDTAVYYCASPQVHYDYAGFPYWGQGTLVTVSSEPKSSDKTHTCPPCPAPEAAGGPSVFLFPPKPKDTLMISRTPEVTCVVVSVSHEDPEVKFNWYVDGVEVHNAKTKPREEQYNSTYRVVSVLTVLHQDWLNGKEYKCKVSNKALPAPIEKTISKAKGQPREPQVYTLPPSREEMTKNQVSLWCLVKGFYPSDIAVEWESNGQPENNYKTTPPVLDSDGSFFLYSKLTVDKSRWQQGNVFSCSVMHEALHNHYTQKSLSLSPGKGGSEGKSSGSGSESKSTGGSAIQLTQSPSSLSASVGDRVTITCRASSSVSYIHWFQQKPGKAPKPLIYATSNLASGVPSRFSGSGSGTDFTLTISSLQPEDFATYYCQQWTSNPPTFGQGTKLEIKGGSEGKSSGSGSESKSTGGSQVQLVQSGAEVKKPGSSVKVSCKASGYTFTSYNMHWVRQAPGQGLEWMGAIYPGNGDTSYAQKFQGRVTITADKSTSTAYMELSSLRSEDTAVYYCARSTYYGGDWYFNVWGQGTLVTVSS
notes: Trispecific IgG1; also called CD9B643 / CD3B2030-N106A-scFv-LH-C20B22
- IC50, T-cell killing of HBL-1 (Incucyte) [12]: 0.0692 nM
- IC50, T-cell killing of OCI-Ly10 (Incucyte) [13]: 5.6 nM
- IC50, CARNAVAL killing (Incucyte) [14]: 0.285 nM
- IC50, CARNAVAL killing, 72 h (FACS) [15]: 0.17 nM
- IC50, HBL-1 killing, 72 h (FACS) [15]: 1.68 nM
- IC50, OCI-LY10 killing, 72 h (FACS) [15]: 16.9 nM
- Cmax (maximum cytotoxicity), donor 1 [16]: 35%
- Cmax (maximum cytotoxicity), donor 2 [16]: 67%
- Cmax (maximum cytotoxicity), donor 3 [16]: 66%
- EC50, autologous B-cell depletion, donor 2 [16]: 9 nM
- EC50, autologous B-cell depletion, donor 3 [16]: 23 nM
- Kd [7]: > 3000 nM
- Kd [8]: 0.27 nM
- Kd [9]: 0.04 nM
- EC50 [17]: 8 nM
- EC50 [18]: 6 nM
- EC50 [19]: 2 nM
